Series [1] deals with AceMYBS1 (Actinidia eriantha). Kind of series: cell_activity. The settings on record: dual-luciferase, tobacco leaves.
In series [2] the test system is AceMYBS1 + AceGBF3 (Actinidia eriantha). The series is described as follows: cell_activity. The settings on record: dual-luciferase, co-expression.

For AceGGP3 promoter (2.6 kb, P2660), the activity in series [1] stood at 3.74 fold; in series [2], 6.67 fold.

The record behind these values is patent US20250154519.
